target: human neonatal Fc-receptor (FcRn) (human) (UniProt P55899); assay: FcRn affinity chromatography

Row | FcRn-affinity column retention time | RT (Min) on FcRn affinity column | Substance
1 | 41.3 min |  | IgG1 Fc-region molecule with L234A/L235A/P329G and symmetric Y436A
2 |  | 0 min | bispecific antibody (knobs-into-holes), first chain with I253A/H310A/H435A and second chain with H435A
3 |  | 0 min | bispecific antibody (knobs-into-holes), first chain with I253A/H310A/H435A and second chain with H310A
4 |  | 0 min | bispecific antibody (knobs-into-holes), first chain with I253A/H310A/H435A and second chain with I253A/H310A/H435A

target: human neonatal Fc-receptor (FcRn) (human) (UniProt P55899); assay: FcRn affinity chromatography, bispecific KiH antibody

Row | retention time on FcRn affinity column | Substance
5 | 56.2 min | bispecific antibody (knobs-into-holes), one chain with M252Y/S254T/T256E
6 | 48.8 min | bispecific antibody (knobs-into-holes), one chain with H435A
7 | 46.7 min | bispecific antibody (knobs-into-holes), one chain with H310A/H433A/Y436A
8 | 48.4 min | bispecific antibody (knobs-into-holes), one chain with H310A
9 | 46.3 min | bispecific antibody (knobs-into-holes), one chain with L251D/L314D/L432D
10 | 48.8 min | bispecific antibody (knobs-into-holes), one chain with I253A
